In PMC5680235, “Identification of a peptide recognizing cerebrovascular changes in mouse models of Alzheimer’s disease” (Nature Communications, 2017):
Where no end group is shown, it is not given here. FAM = 5(6)-carboxyfluorescein label

B1: unlabeled DAG peptide (cyclic CDAGRKQKC) (peptide)
peptide: CDAGRKQKC
modifications: also: cyclic peptide, ring type not given here
notes: cyclic 9-amino acid CX7C peptide found by in vivo T7 phage display, without label; Synthesised on rink amide resin, so the C-terminus is probably an amide; also called non-labeled DAG; free DAG; source: synthetic peptide
B2: FAM-labeled DAG peptide (cyclic CDAGRKQKC) (peptide)
peptide: {FAM}-CDAGRKQKC
modifications: also: cyclic peptide, ring type not given here
notes: cyclic 9-amino acid CX7C peptide found by in vivo T7 phage display in hAPP-J20 mice; Synthesised on rink amide resin, so the C-terminus is probably an amide; the ring is probably a disulfide between the two cysteines (neither is stated for this peptide); also called FAM-DAG; source: synthetic peptide

Molecular target: T1, full-length recombinant human CTGF/CCN2 (human, UniProt P29279 27-349)
T1 construct: connective tissue growth factor (CTGF/CCN2), human, full-length recombinant; also called connective tissue growth factor; recombinant CTGF; source: bought: R&D systems (cat#9190-CC)
T1 sequence (looked up): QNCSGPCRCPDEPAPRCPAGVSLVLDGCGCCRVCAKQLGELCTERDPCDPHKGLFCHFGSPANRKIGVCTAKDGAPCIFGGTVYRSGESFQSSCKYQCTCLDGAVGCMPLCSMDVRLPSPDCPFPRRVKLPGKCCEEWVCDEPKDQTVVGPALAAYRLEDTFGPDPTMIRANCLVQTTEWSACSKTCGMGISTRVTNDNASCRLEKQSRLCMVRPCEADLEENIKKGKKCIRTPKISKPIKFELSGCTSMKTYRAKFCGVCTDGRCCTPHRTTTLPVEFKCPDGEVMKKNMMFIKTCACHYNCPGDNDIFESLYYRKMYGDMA
Test: ELISA; plate wells coated with recombinant human CTGF; FAM-peptide in 0.05% Casein/PBST overnight at 4 °C, two peptide concentrations; alone or with excess unlabeled DAG (0.6 mM); detected with anti-FITC HRP antibody, absorbance at 450 nm
Conditions: both partners purified

Binder	binding result
B1	binds
B2	binds
